The results in this text go back to article PMC6275497, “Folding pathway of an Ig domain is conserved on and off the ribosome” (Proceedings of the National Academy of Sciences of the …, 2018).

The target in one assay is ribosomal protein uL24 (E. coli (endogenous in E. coli KC6), UniProt P60624 1-104). The experiment in a line: cryo-EM structure; TnaC-stalled I27[L = 35] ribosome-nascent chain complexes purified from E. coli by the His tag; average resolution 3.2 Å, I27 density ~4.5- to 9-Å; rigid-body fit of PDB 1TIT and PDB 4UY8, uL24 β hairpin remodeled. As to conditions: both partners purified.

The target of the next assay is ribosomal protein uL29 (E. coli (endogenous in E. coli KC6), UniProt P0A7M6 1-63). The description is as above. Conditions: both partners purified.

B1: N-terminally His-tagged I27-TnaC[L = 35] nascent chain (titin I27 domain, linker, TnaC arrest peptide), stalled on the ribosome (other)
chain: MDMGHHHHHHHHDYDIPTTLEVLFQGPGTLIEVEKPLYGVEVFVGETAHFEIELSEPDVHGQWKLKGQPLAASPDCEIIEDGKKHILILHNCQLGMTGEVSFQAANTKSAANLKVKELSGSGSGSGGPNILHISVTSKWFNIDNKIVDHRP
modifications: nascent chain held as peptidyl-tRNA on the stalled ribosome
notes: N-terminal leader of the construct as printed; it holds the 8X His tag itself; titin I27 Ig domain, 89-residue construct; numbers count on: the I27 domain itself (L1-L89); linker between I27 and the TnaC arrest peptide; TnaC arrest peptide; also called I27[L = 35]; not shown: His8, N-terminal, kept
With B1, the binding result in the assay with ribosomal protein uL24 and in the assay with ribosomal protein uL29 was “binds” throughout.
